According to US20140223606, “COMPOSITIONS AND METHODS COMPRISING SEQUENCES HAVING MEGANUCLEASE ACTIVITY” (PIONEER HI BRED INTERNATIONAL INC, published 2014):

Key:
Assay in all cases: cell_activity; maize
Settings in all cases: tags: SV40 NLS
MHP77.3(L9-11) = biological target: T1, MHP77.3(L9-11) (artificial)
T1 chain: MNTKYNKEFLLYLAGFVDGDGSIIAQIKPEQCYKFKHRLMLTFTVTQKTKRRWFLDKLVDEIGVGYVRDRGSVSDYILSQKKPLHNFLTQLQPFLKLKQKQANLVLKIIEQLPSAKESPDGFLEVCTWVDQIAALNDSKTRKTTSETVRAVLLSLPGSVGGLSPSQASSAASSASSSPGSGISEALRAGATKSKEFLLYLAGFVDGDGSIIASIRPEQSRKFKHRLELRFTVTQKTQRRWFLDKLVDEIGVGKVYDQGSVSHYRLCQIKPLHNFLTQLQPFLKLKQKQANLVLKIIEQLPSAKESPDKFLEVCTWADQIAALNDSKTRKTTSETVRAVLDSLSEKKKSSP

MHP77.3(15) = biological target: T2, MHP77.3(15) (artificial)
T2 chain: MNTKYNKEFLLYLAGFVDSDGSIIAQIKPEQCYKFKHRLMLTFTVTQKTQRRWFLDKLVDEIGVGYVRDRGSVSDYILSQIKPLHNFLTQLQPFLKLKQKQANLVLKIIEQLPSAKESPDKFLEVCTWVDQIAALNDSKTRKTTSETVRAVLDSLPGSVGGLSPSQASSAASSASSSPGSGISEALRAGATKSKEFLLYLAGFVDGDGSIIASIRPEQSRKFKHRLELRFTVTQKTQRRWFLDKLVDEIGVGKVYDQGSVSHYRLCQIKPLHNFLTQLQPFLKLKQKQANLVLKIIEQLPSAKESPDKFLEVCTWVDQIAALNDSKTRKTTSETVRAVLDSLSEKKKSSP

MHP77.3(L9-02) = biological target: T3, MHP77.3(L9-02) (artificial)
T3 chain: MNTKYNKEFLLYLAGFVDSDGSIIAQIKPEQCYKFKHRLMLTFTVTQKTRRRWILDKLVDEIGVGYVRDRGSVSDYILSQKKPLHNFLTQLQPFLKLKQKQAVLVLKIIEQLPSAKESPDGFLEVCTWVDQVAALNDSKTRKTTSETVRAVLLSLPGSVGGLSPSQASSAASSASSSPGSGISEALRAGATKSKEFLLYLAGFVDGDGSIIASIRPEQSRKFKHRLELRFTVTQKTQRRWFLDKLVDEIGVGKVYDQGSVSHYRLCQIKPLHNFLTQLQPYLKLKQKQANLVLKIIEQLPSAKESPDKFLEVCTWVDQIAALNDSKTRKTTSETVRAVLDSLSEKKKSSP

MHP77.3(L9-12) = biological target: T4, MHP77.3(L9-12) (artificial)
T4 chain: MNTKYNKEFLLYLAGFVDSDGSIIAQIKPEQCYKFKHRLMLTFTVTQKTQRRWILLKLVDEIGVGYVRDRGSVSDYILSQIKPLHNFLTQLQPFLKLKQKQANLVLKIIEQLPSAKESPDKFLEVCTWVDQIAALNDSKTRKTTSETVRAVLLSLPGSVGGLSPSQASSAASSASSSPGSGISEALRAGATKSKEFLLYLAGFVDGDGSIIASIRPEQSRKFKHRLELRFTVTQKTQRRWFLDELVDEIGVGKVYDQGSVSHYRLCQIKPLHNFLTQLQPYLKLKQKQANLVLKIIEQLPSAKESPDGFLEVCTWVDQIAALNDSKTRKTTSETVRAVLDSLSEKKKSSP

MHP77.3 = biological target: T5, MHP77.3 (artificial)
T5 chain: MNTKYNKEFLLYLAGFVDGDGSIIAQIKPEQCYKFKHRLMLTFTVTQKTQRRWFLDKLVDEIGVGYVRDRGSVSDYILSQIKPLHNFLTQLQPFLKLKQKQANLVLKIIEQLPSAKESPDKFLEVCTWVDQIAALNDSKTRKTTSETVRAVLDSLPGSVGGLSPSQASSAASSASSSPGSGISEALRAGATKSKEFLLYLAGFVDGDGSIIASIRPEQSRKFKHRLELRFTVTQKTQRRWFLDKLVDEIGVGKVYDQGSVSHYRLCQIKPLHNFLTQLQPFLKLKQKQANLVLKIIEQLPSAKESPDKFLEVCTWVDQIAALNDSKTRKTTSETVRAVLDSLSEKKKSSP

B1: MHP77 recognition site (dsDNA)
DNA 1: GGGCGGTATGTATGTCATACTA
DNA 2: TAGTATGACATACATACCGCCC
- activity (MHP77.3(L9-11)): 35 % target site mutation rate
- activity (MHP77.3(15)): 22 % target site mutation rate
- activity (MHP77.3(L9-02)): 5 % target site mutation rate
- activity (MHP77.3(L9-12)): 19 % target site mutation rate
- activity (MHP77.3): 11 % target site mutation rate
